Results reported in paper PMC4045772 (PLoS ONE, 2014).

Biological target: biotinylated Cul3/Rbx1 (UniProt Q13618 1-768; P62877 1-108, biotin (BirA biotinylation of the Avi tag))
Experiment: AlphaScreen or HTRF; 30 nM His-tagged Keap1 (35-235) incubated with CDDO or DMSO 2.5 h at 37°C, then 30 nM biotinylated Cul3/Rbx1 1.5 h at room temperature; nickel chelate donor beads and streptavidin acceptor beads
Details: both partners purified

biotinylated Cul3/Rbx1, sequence (Q13618 whole entry, chain 1 of 2): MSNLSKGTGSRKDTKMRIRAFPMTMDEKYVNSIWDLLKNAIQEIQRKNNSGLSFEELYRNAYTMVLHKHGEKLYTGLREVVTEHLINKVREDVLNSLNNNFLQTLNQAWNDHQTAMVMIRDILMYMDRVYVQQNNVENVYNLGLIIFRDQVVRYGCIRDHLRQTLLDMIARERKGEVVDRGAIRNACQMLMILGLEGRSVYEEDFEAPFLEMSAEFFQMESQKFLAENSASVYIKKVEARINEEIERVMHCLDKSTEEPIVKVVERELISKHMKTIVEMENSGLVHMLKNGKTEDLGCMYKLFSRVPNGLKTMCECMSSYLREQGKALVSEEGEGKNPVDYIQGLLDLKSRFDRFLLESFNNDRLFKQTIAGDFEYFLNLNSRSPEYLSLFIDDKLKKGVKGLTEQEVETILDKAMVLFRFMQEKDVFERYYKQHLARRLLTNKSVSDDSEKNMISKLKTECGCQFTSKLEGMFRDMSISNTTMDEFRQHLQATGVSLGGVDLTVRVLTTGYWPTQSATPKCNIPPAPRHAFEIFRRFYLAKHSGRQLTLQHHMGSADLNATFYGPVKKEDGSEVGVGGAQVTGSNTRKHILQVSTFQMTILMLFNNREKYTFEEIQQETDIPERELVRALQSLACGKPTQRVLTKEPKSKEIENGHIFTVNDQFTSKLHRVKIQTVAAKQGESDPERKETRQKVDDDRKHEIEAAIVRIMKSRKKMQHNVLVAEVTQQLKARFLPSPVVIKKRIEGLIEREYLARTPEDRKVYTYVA
biotinylated Cul3/Rbx1, sequence (P62877 whole entry, chain 2 of 2): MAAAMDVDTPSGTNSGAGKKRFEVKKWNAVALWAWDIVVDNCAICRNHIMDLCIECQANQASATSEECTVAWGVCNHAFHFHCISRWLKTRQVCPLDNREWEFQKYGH

B1: Keap1 BTB with the first ~50 residues of the BACK domain (residues 35-235), C151S (domain or fragment, human, UniProt Q14145 35-235, looked up)
chain: STECKAEVTPSQHGNRTFSYTLEDHTKQAFGIMNELRLSQQLCDVTLQVKYQDAPAAQFMAHKVVLASSSPVFKAMFTNGLREQGMEVVSIEGIHPKVMERLIEFAYTASISMGEKSVLHVMNGAVMYQIDSVVRACSDFLVQQLDPSNAIGIANFAEQIGCVELHQRAREYIYMHFGEVAKQEEFFNLSHCQLVTLISRD
B1: binds.
